Source: PMC6791878, “Evaluation of integrin αvβ6 cystine knot PET tracers to detect cancer and idiopathic pulmonary fibrosis” (Nature Communications, 2019)
Read-outs that look alike come from different tables or passages of the source.

Test system: pancreatic, cervical and lung cancer
Settings: for ROI uptake RM (red marrow) / ROI uptake SI (small intestine) / ROI uptake Sk (skin) / ROI uptake Sp (spleen) / ROI uptake St (stomach) / ROI uptake TB (total body) / ROI uptake Tm (thymus) / ROI uptake Tr (thyroid) / ROI uptake ULI (upper large intestine) / ROI uptake Bl (bladder) / ROI uptake Bn (osteogenic cells) / ROI uptake Br (brain) / ROI uptake Brs (breast) / ROI uptake HC (heart contents) / ROI uptake HW (heart wall) / ROI uptake LLI (lower large intestine) / ROI uptake Ln (lung) / ROI uptake Lv (liver) / ROI uptake Ms (muscle) / ROI uptake Pn (pancreas) / ROI uptake Pt (pituitary gland): one patient, Fig 4C
Procedure: The administered dose was 55.5–96.2MBq (1.5–2.6 mCi). The scan (6 bed positions, 2 min bed^−1) covered an area that included the top of the skull to the middle of the femur. OSEM was applied for reconstruction. […] The CT scan (140 kV, 35 mA, pitch of 1:1, layer of 5 mm thickness; layer spacing of 3 mm, 512*512 matrix, field of view of 70 cm) also covered the top of the skull to the middle of the femur. […] Immediately upon completion of the first scan, the second whole-body static PET data was acquired. Sequentially, multiple whole-body static PET scans were acquired, one by one, from 0 to 75 min.
Upon co-registration of the PET and CT images, the CT images were used to determine regions of interest for the organs or tissues reported in the manuscript. These ROIs were applied to the PET images of the brain, pituitary gland, breast, lower and upper large intestine, small intestine, stomach, pancreas, heart wall, liver, lung, muscle, red marrow, bone, skin, and thyroid gland. For high uptake organs such as the kidneys, bladder and for the whole body, threshold-based segmentation of PET images were used to determine a close-fitting ROI around the entire organ or whole body. In order to determine accuracy, these PET-derived ROIs were compared to the CT overlay for a close match.

In the case of CC[C@H](C)[C@@H]1NC(=O)[C@@H](NC(=O)CNC(=O)CCC(C(=O)O)N2CCN(CC(=O)O)CCN(CC(=O)O)CC2)CSSC[C@@H]2NC(=O)[C@H](C)NC(=O)CNC(=O)[C@@H]3CCCN3C(=O)[C@@H]3CSSC[C@@H](C(=O)NCC(N)=O)NC(=O)[C@H](Cc4ccc(O)cc4)NC(=O)CNC(=O)[C@H](CC(N)=O)NC(=O)CNC(=O)[C@H](CCCNC(=N)N)NC(=O)[C@H](CSSC[C@H](NC(=O)[C@H](CCCNC(=N)N)NC(=O)[C@H](Cc4ccccc4)NC(=O)[C@H](CC(C)C)NC(=O)[C@H](CC(C)C)NC(=O)[C@H]([C@@H](C)O)NC(=O)CNC(=O)[C@H](CC(C)C)NC(=O)[C@H](CC(=O)O)NC(=O)[C@H]([C@@H](C)O)NC(=O)[C@H](CCCNC(=N)N)NC(=O)CNC(=O)[C@H](CC(N)=O)NC(=O)[C@H](CC(C)C)NC1=O)C(=O)N[C@@H](CCCNC(=N)N)C(=O)N[C@@H](CCCNC(=N)N)C(=O)N[C@@H](CC(=O)O)C(=O)N[C@@H](CO)C(=O)N[C@@H](CC(=O)O)C(=O)N3)NC(=O)[C@H]([C@@H](C)CC)NC2=O (some centres unmarked) [[^68Ga]NODAGA-R01-MG, metal not drawn], the “ROI uptake RM (red marrow)” value (36 min p.i.) was 0.2108, the “ROI uptake SI (small intestine)” value (36 min p.i.) was 6.296 and the “ROI uptake Sk (skin)” value (36 min p.i.) was 0.08072. The “ROI uptake Sp (spleen)” value (36 min p.i.) was 0.426, the “ROI uptake St (stomach)” value (36 min p.i.) was 2.242 and the “ROI uptake TB (total body)” value (36 min p.i.) was 0.6996. For the same molecule, the “ROI uptake Tm (thymus)” value (36 min p.i.) was 0.6323, the “ROI uptake Tr (thyroid)” value (36 min p.i.) was 0.7534 and the “ROI uptake ULI (upper large intestine)” value (36 min p.i.) was 1.834. For the same molecule, the “ROI uptake Bl (bladder)” value (49 min p.i.) was 9.366, the “ROI uptake Bn (osteogenic cells)” value (49 min p.i.) was 0.4088 and the “ROI uptake Br (brain)” value (49 min p.i.) was 0.04004. The “ROI uptake Brs (breast)” value (49 min p.i.) was 0.5978, the “ROI uptake HC (heart contents)” value (49 min p.i.) was 0.5978 and the “ROI uptake HW (heart wall)” value (49 min p.i.) was 0.3526. For the same molecule, the “ROI uptake LLI (lower large intestine)” value (49 min p.i.) was 1.426, the “ROI uptake Ln (lung)” value (49 min p.i.) was 0.3066 and the “ROI uptake Lv (liver)” value (49 min p.i.) was 0.6029. For the same molecule, the “ROI uptake Ms (muscle)” value (49 min p.i.) was 0.7154, the “ROI uptake Pn (pancreas)” value (49 min p.i.) was 0.9657 and the “ROI uptake Pt (pituitary gland)” value (49 min p.i.) was 2.212. For the same molecule, the “ROI uptake RM (red marrow)” value (49 min p.i.) was 0.1942, the “ROI uptake SI (small intestine)” value (49 min p.i.) was 6.546 and the “ROI uptake Sk (skin)” value (49 min p.i.) was 0.07665. The “ROI uptake Sp (spleen)” value (49 min p.i.) was 0.373, the “ROI uptake St (stomach)” value (49 min p.i.) was 2.34 and the “ROI uptake TB (total body)” value (49 min p.i.) was 0.6949. The “ROI uptake Tm (thymus)” value (49 min p.i.) was 0.5876, the “ROI uptake Tr (thyroid)” value (49 min p.i.) was 0.5416 and the “ROI uptake ULI (upper large intestine)” value (49 min p.i.) was 1.661. The “ROI uptake Bl (bladder)” value (61 min p.i.) was 9.011, the “ROI uptake Bn (osteogenic cells)” value (61 min p.i.) was 0.8028 and the “ROI uptake Br (brain)” value (61 min p.i.) was 0.04398. For the same molecule, the “ROI uptake Brs (breast)” value (61 min p.i.) was 0.7155, the “ROI uptake HC (heart contents)” value (61 min p.i.) was 0.5817 and the “ROI uptake HW (heart wall)” value (61 min p.i.) was 0.3897. The “ROI uptake LLI (lower large intestine)” value (61 min p.i.) was 1.338, the “ROI uptake Ln (lung)” value (61 min p.i.) was 0.3258 and the “ROI uptake Lv (liver)” value (61 min p.i.) was 0.6399. For the same molecule, the “ROI uptake Ms (muscle)” value (61 min p.i.) was 0.9889, the “ROI uptake Pn (pancreas)” value (61 min p.i.) was 1.129 and the “ROI uptake Pt (pituitary gland)” value (61 min p.i.) was 2.048. For the same molecule, the “ROI uptake RM (red marrow)” value (61 min p.i.) was 0.07562, the “ROI uptake SI (small intestine)” value (61 min p.i.) was 6.597 and the “ROI uptake Sk (skin)” value (61 min p.i.) was 0.1047. For the same molecule, the “ROI uptake Sp (spleen)” value (61 min p.i.) was 0.4654, the “ROI uptake St (stomach)” value (61 min p.i.) was 2.513 and the “ROI uptake TB (total body)” value (61 min p.i.) was 0.5643. For the same molecule, the “ROI uptake Tm (thymus)” value (61 min p.i.) was 0.5119, the “ROI uptake Tr (thyroid)” value (61 min p.i.) was 0.4479 and the “ROI uptake ULI (upper large intestine)” value (61 min p.i.) was 1.478. The “Bl, PET uptake, Average” value (Average of patients, 29-60 min) was 25.3728, the “Bn, PET uptake, Average” value (Average of patients, 29-60 min) was 0.4809 and the “Br, PET uptake, Average” value (Average of patients, 29-60 min) was 0.09236. The “Brs, PET uptake, Average” value (Average of patients, 29-60 min) was 0.4271, the “CA, PET uptake, Average” value (Average of patients, 29-60 min) was 4.033 and the “HC, PET uptake, Average” value (Average of patients, 29-60 min) was 0.8404. The “HW, PET uptake, Average” value (Average of patients, 29-60 min) was 0.6923, the “LLI, PET uptake, Average” value (Average of patients, 29-60 min) was 1.574 and the “Ln, PET uptake, Average” value (Average of patients, 29-60 min) was 0.4315. For the same molecule, the “Lv, PET uptake, Average” value (Average of patients, 29-60 min) was 0.7253, the “Ms, PET uptake, Average” value (Average of patients, 29-60 min) was 0.5597 and the “Pn, PET uptake, Average” value (Average of patients, 29-60 min) was 1.617. For the same molecule, the “Pt, PET uptake, Average” value (Average of patients, 29-60 min) was 3.247, the “RM, PET uptake, Average” value (Average of patients, 29-60 min) was 0.2168 and the “SI, PET uptake, Average” value (Average of patients, 29-60 min) was 7.061. For the same molecule, the “Sk, PET uptake, Average” value (Average of patients, 29-60 min) was 0.1123, the “Sp, PET uptake, Average” value (Average of patients, 29-60 min) was 0.4371 and the “St, PET uptake, Average” value (Average of patients, 29-60 min) was 8.975. The “TB, PET uptake, Average” value (Average of patients, 29-60 min) was 0.841, the “Tm, PET uptake, Average” value (Average of patients, 29-60 min) was 0.6358 and the “Tr, PET uptake, Average” value (Average of patients, 29-60 min) was 1.023. The “ULI, PET uptake, Average” value (Average of patients, 29-60 min) was 1.719 and the adverse reactions (~2 mCi i.v., ~1 h p.i., lasted about an hour, disappeared without treatment) was “One patient reported nausea and vertigo”.
